Results: patent publication US20140134179A1 (published 2014)

Key:
[1] = biological target: human TEM8 on CHO cells (CHO-TEM8) (UniProt Q9H6X2 33-564); assay: flow cytometry, inhibition of PA-FITC binding
[2] = biological target: mTEM8; assay: ELISA
[3] = biological target: T1, hTEM8(ED)-Fc fusion protein (UniProt Q9H6X2 33-321); assay: ELISA
T1 chain: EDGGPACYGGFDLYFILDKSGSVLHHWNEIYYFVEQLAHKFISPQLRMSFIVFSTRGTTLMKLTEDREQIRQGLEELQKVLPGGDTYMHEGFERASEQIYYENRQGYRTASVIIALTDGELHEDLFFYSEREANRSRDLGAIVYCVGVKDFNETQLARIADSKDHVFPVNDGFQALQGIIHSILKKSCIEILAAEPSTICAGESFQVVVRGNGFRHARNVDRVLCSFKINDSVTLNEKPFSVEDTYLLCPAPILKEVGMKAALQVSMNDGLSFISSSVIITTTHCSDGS

B1: L2 Fab (Fab, V domains shown)
VH: QVQLKESGPALVKPTQTLTLTCTFSGFSLSTSGGGVSWIRQPPGKALEWLAHIYSNDDKSYSTSLKTRLTISKDTSKNQVVLTMTNMDPVDTATYYCARGGYFLDYWGQGTLVTVSS
VL: DIELTQPPSVSVAPGQTARISCSGDNIGGIYVHWYQQKPGQAPVLVIYADSKRPSGIPERFSGSNSGNTATLTISGTQAEDEADYYCQSYDITSLVFGGGTKLTVL
- EC50 [1]: 0.0218 µg/mL

B2: L3 Fab (Fab, V domains shown)
VH: QVQLQQSGPGLVKPSQTLSLTCAISGDSVSTNGAAWGWIRQSPGRGLEWLGRIYYRSKWYNDYAVSVKSRITINPDTSKNQFSLQLNSVTPEDTAVYYCARMPGGFLFDLWGQGTLVTVSS
VL: DIELTQPPSVSVAPGQTARISCSGDNIRSYYAHWYQQKPGQAPVLVIYGDSKRPSGIPERFSGSNSGNTATLTISGTQAEDEADYYCSSYASHDYVFGGGTKLTVLG
- EC50 [1]: 0.0364 µg/mL

B3: L1 (Fab, V domains shown)
VH: QVQLVESGGGLVQPGGSLRLSCAASGFTFNSYAMSWVRQAPGKGLEWVSLISSGSSTYYADSVKGRFTISRDNSKNTLYLQMNSLRAEDTAVYYCARAGFKFDNWGQGTLVTVSS
VL: DIELTQPPSVSVAPGQTARISCSGDSIPNYSVSWYQQKPGQAPVLVIYADSNRPSGIPERFSGSNSGNTATLTISGTQAEDEADYYCQSYDNTSPDLVFGGGTKLTVLG
- EC50 [2]: 0.21 nM

B4: L3 (Fab, V domains shown)
VH: B2 VH
VL: B2 VL
- EC50 [2]: 0.36 nM

B5: L1 Fab (Fab, V domains shown)
VH: B3 VH
VL: B3 VL
- EC50 [3]: 0.18 nM
- EC50 [1]: 0.0342 µg/mL

B6: L2 (Fab, V domains shown)
VH: B1 VH
VL: B1 VL
- EC50 [2]: 0.28 nM

B7: L5 (Fab, V domains shown)
VH: QVQLVESGGGLVQPGGSLRLSCAASGFTFNSYGLSWVRQAPGKGLEWVSNISSNGSYTYYADSVKGRFTISRDNSKNTLYLQMNSLRAEDTAVYYCARAGYGLFDVWGQGTLVTVSS
VL: DIELTQPPSVSVAPGQTARISCSGDKLREYYVHWYQQKPGQAPVLVIYGDNKRPSGIPERFSGSNSGNTATLTISGTQAEDEADYYCSSWAGSRSGTVFGGGTKLTVL
- EC50 [2]: 0.22 nM
